In article doi:10.1101/596536 one finds Kd and stoichiometry N data, which are given here for four substances.

The term Kd denotes the free concentration of one partner at which half of the binding sites on the other are occupied at equilibrium, for simple one-to-one binding. One may read the stoichiometry N as the number of molecules, sites or subunits per partner or assembly.

Assay [1] concerns the target TcdB2-TccC3 from Photorhabdus luminescens (Pl-TcdB2-TccC3) (P. luminescens) (UniProt Q8GF99). As to the kind of experiment: BLI.
In assay [2] the target is TcdA4 from Morganella morganii (Mm-TcdA4) (M. morganii). Nature of the assay: cryo-EM structure.
In assay [3] the target is TcdA1 from Photorhabdus luminescens (Pl-TcdA1) (P. luminescens) (UniProt Q9RN43). As to the kind of experiment: cryo-EM structure.
Assay [4] has as its target XptA1 from Xenorhabdus nematophila (Xn-XptA1) (X. nematophila). Nature of the assay: cryo-EM structure.
In assay [5] the target is TcdA4 from Photorhabdus luminescens (Pl-TcdA4) (P. luminescens) (UniProt Q8GF92). Nature of the assay: cryo-EM structure.

The substance “TcdA4 from Morganella morganii (Mm-TcdA4) (natural protein)” showed a dissociation constant (Kd) in assay [1] of 11.3 nM. In addition, the stoichiometry N in assay [2] was 5. Substance “TcdA1 from Photorhabdus luminescens (Pl-TcdA1), Q9RN43 1-2516” returned a Kd in assay [1] of 0.63 nM. Moreover, the stoichiometry N in assay [3] was 5.

“XptA1 from Xenorhabdus nematophila (Xn-XptA1) (natural protein)” came in with a Kd in assay [1] of 1.99 nM. This substance also had a stoichiometry N in assay [4] of 5. In turn, “TcdA4 from Photorhabdus luminescens (Pl-TcdA4), Q8GF92 1-2381” yielded a stoichiometry N in assay [5] of 5.
